Data set [1] concerns the target T1, Vibrio cholerae HigB2 toxin (Vibrio cholerae, UniProt Q9KMA6).
T1 sequence: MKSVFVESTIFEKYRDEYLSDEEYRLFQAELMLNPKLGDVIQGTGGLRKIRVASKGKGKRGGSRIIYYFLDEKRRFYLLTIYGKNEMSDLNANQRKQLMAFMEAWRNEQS
Description: ITC.

The target of data set [2] is Vibrio cholerae HigB2 toxin (Vibrio cholerae, UniProt Q9KMA6). Description: crystal structure.
The data set “SAXS” concerns the molecule itself. As to the kind of experiment: SAXS.
The data set “crystal structure” deals with the molecule itself. As to the kind of experiment: crystal structure.

Take NRDLFAELSSALVEAKQHSEW [VcHigA2_(3-22) peptide]: the binding result in data set [1] was “binds”.

B1: nanobody Nb6 (VHH)
VHH: QVQLQESGGGLVQPGGSLRLSCAASGFTFSNYAMRWYRQAPGEEREFVAFISSVGGSTNYADSVKGRFTISRDNGKNTLYLQMNSLKPEDTAVYFCVARLSLISDSWGQGTQVTVSS
As to B1, the binding result in data set [2] is “binds”.

B2: Vibrio cholerae HigA2 antitoxin, full length (natural protein)
chain: MSNRDLFAELSSALVEAKQHSEGKLTLKTHHVNDVGELNISPDEIVSIREQFNMSRGVFARLLHTSSRTLENWEQGRSVPNGQAVTLLKLVQRHPETLSHIAEL
Take B2: the dH in data set [1] is -26.6 ± 0.9 kcal/mol. Further, the “stoichiometry N” value in “SAXS” amounted to 2.

B3: nanobody Nb2 (VHH)
VHH: QVQLQESGGGLVQPGGSLRLSCAASGFTLDYYAIGWFRQAPGKEREGVSCISSSGGTTNYADSVKGRFTVSRDNAKNTVYLQMNSLKPEDTAVYYCVADFACPLIREYDYWGQGTQVTVSS
Regarding B3, in data set [2], the binding result is listed as “binds”.

B4: C-terminal domain of VcHigA2 (residues 38-104) (domain or fragment)
chain: LNISPDEIVSIREQFNMSRGVFARLLHTSSRTLENWEQGRSVPNGQAVTLLKLVQRHPETLSHIAEL
For B4, the binding result in “crystal structure” is given as “binds”.
